From US20190000885A1 (GENERAL HOSPITAL, published 2019) come the findings set out here.

In the assay the target is T1, RNase/ANG inhibitor 1 (RNH1), endogenous protein in sorted mouse LKS cells and myeloid-restricted progenitors (mouse, UniProt Q91VI7 1-456).
T1 sequence (looked up): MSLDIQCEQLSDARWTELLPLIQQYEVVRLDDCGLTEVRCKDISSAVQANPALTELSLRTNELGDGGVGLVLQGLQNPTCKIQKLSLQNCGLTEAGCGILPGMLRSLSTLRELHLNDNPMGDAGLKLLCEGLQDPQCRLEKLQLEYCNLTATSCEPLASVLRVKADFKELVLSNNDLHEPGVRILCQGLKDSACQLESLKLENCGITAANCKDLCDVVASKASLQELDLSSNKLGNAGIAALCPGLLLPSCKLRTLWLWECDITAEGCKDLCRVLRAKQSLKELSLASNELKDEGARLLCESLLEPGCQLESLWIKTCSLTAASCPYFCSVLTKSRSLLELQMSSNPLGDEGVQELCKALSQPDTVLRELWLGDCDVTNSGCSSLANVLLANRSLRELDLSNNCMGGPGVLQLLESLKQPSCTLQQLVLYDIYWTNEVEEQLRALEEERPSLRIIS
Briefly: double immunofluorescence and acceptor-photobleaching FRET (AF488 donor, AF555 acceptor) on fixed sorted mouse cells. As to the method:
For ANG/RNH1 localization, cells were stained with an in-house made mouse ANG-specific C527 monoclonal antibody (10 μg/ml) and R127 rabbit pAb of RNH1 (5 μg/ml), followed with AF488-conjugated rabbit anti-mouse (Thermo Scientific A11059, 1:600 dilution) and AF555-conjugated goat anti-rabbit (Thermo Scientific A21428, 1:600 dilution). Appropriate isotype controls were used at the same concentration. Images were acquired using Nikon A1R confocal microscopy.
FRET was performed using the acceptor photo-bleaching method, as previously described (Pizzo et al., 2013). Briefly, AF488 was used as the donor and AF555 as the acceptors. Signals were photobleached to less than 10% of the initial fluorescent measurement. ROI measurements from LKS cells and myeloid-restricted progenitors were taken from 10 individual cells. FRET efficiency was calculated using the formula […], where ID and IDA are fluorescence intensities before and after photobleaching, respectively. FRET was performed using Leica SP2 confocal microscopy.
The exact subcellular compartment where tiRNA is produced by ANG is currently unknown, but it has been shown that tiRNA production is correlated to SG localization of ANG in stressed cells (Pizzo et al., 2013). […]

B1: Angiogenin (ANG), endogenous mouse protein in sorted LKS cells and myeloid-restricted progenitors (enzyme, UniProt P21570 25-145, looked up)
chain: QDDSRYTKFLTQHHDAKPKGRDDRYCERMMKRRSLTSPCKDVNTFIHGNKSNIKAICGANGSPYRENLRMSKSPFQVTTCKHTGGSPRPPCQYRASAGFRHVVIACENGLPVHFDESFFSL
notes: Endogenous intracellular protein, not the recombinant ANG preparation; also called ribonuclease 5; RNase5
For B1, the binding result is listed as “binds”.
